In the supplement of paper PMC10065799, “High-throughput profiling of sequence recognition by tyrosine kinases and SH2 domains using bacterial peptide display” (eLife, 2023):

target: SHP2-C SH2; assay: SH2 binding enrichment of the phosphorylated peptide, bacterial display (enrichment ratio); higher = better substrate or ligand; peptides without Tyr show the background
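Wherever SH2 binding enrichment of the phosphorylated peptide, bacterial display is given: peptide library displayed on the E. coli surface as eCPX fusions, selected cells deep-sequenced, score is each peptide's frequency after selection divided by its frequency in the input.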
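Wherever phosphorylation enrichment, bacterial display is given: 11-residue human phosphosite peptides and single-mutation variants displayed on the E. coli surface, counted by deep sequencing, each peptide's frequency after selection divided by its frequency in the unselected input library; frequency after pTyr selection over input frequency; kinase dosed for 20-30% of maximal phosphorylation in three min.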

Row | Sequence | SH2 binding enrichment
1 | RNESFYDTFST [EFCAB3_Y372] | 0.913
2 | SRASYYRKGGC [ALK_Y1283_Y1278S] | 0.473
3 | RKKEEYKMAPY [F8_Y1990_L1994P] | 1.02
4 | RLPINYTTRRI [LAMA2_Y2894_G2889R] | 0.636
5 | TEGNGYISFNE [LCP1_Y28_D24E] | 0.889
6 | WLFFRYLPIGC [ATP2A2_Y836_A838P] | 1.36
7 | LKGQVYILGRE [ASS1_Y359] | 0.444
8 | YGMSSYITRED [FNDC3B_Y180_T179S] | 0.669
9 | DSFATYFRRVL [H2BW1_Y84] | 0.584
10 | VNCHQYDGLVE [ATP2A2_Y407] | 0.983
11 | GREEFYSTHPH [LRRK2_Y1402] | 0.607
12 | KLPYLYDDPFS [GPX2_Y127_P126L] | 0.797
13 | GVRTIYTIDGS [DCLK2_Y124] | 0.941
14 | NTEGGYCCICA [CRELD1_Y328_R329C] | 0.693
15 | VIKDKYPKVRF [APTX_Y209_A212V_YF] | 1.4
16 | PQEVTYAQLDH [KIR3DL2_Y398] | 8.91

Now from value to sequence:

Row | SH2 binding enrichment | Sequence
17 | 0.958 | IINENYDFLKV [NUP98_Y1664_G1669V_YF]
18 | 3.41 | ISHVAYLVLGK [TRRAP_Y892_R893L]
19 | 0.695 | HLWRIYFDITD [MMP27_Y307_YF]
20 | 0.652 | KLIETCFSKNY [PLP1_Y50_Y50C]
21 | 1.03 | AVISVYDLVVV [PSEN1_Y256_A260V]
22 | 2.31 | PSELFYSKIGP [SMG1_Y2254_YF]
23 | 0.652 | ASELGYQFQAI [UROD_Y133_V134Q]
24 | 0.58 | FGSSSYGGAGG [RPA2_Y14_YF]
25 | 0.956 | NHYKICNLCAE [PTEN_Y68_Y68C]
26 | 0.75 | KSAAIYNPVIF [RHO_Y301_YF]
27 | 0.531 | DFPGIYSGFDD [POLR1C_Y33_N32I_YF]
28 | 0.816 | LTFHMYADPNF [SOS1_Y618_YF]
29 | 1.02 | ILGRYYETSSI [PAX2_Y73_G76S]

target: c-Src SH2; assay: as above

Row | Sequence | SH2 binding enrichment
30 | RNESFYDTFST [EFCAB3_Y372] | 0.542
31 | SRASYYRKGGC [ALK_Y1283_Y1278S] | 0.607
32 | RKKEEYKMAPY [F8_Y1990_L1994P] | 0.721
33 | RLPINYTTRRI [LAMA2_Y2894_G2889R] | 0.471
34 | TEGNGYISFNE [LCP1_Y28_D24E] | 14.1
35 | WLFFRYLPIGC [ATP2A2_Y836_A838P] | 0.796
36 | LKGQVYILGRE [ASS1_Y359] | 0.31
37 | YGMSSYITRED [FNDC3B_Y180_T179S] | 0.472
38 | DSFATYFRRVL [H2BW1_Y84] | 0.373
39 | VNCHQYDGLVE [ATP2A2_Y407] | 12.5
40 | GREEFYSTHPH [LRRK2_Y1402] | 0.376
41 | KLPYLYDDPFS [GPX2_Y127_P126L] | 2.42
42 | GVRTIYTIDGS [DCLK2_Y124] | 0.521
43 | NTEGGYCCICA [CRELD1_Y328_R329C] | 0.632
44 | VIKDKYPKVRF [APTX_Y209_A212V_YF] | 1.04
45 | PQEVTYAQLDH [KIR3DL2_Y398] | 1.25

More lines, now with the values ahead:

Row | SH2 binding enrichment | Sequence
46 | 0.588 | IINENYDFLKV [NUP98_Y1664_G1669V_YF]
47 | 1.1 | ISHVAYLVLGK [TRRAP_Y892_R893L]
48 | 0.491 | HLWRIYFDITD [MMP27_Y307_YF]
49 | 0.447 | KLIETCFSKNY [PLP1_Y50_Y50C]
50 | 0.797 | AVISVYDLVVV [PSEN1_Y256_A260V]
51 | 4.64 | PSELFYSKIGP [SMG1_Y2254_YF]
52 | 0.826 | ASELGYQFQAI [UROD_Y133_V134Q]
53 | 0.394 | FGSSSYGGAGG [RPA2_Y14_YF]
54 | 0.97 | NHYKICNLCAE [PTEN_Y68_Y68C]
55 | 0.589 | KSAAIYNPVIF [RHO_Y301_YF]
56 | 0.579 | DFPGIYSGFDD [POLR1C_Y33_N32I_YF]
57 | 6.02 | LTFHMYADPNF [SOS1_Y618_YF]
58 | 2.39 | ILGRYYETSSI [PAX2_Y73_G76S]

target: Grb2 SH2 (UniProt P62993); assay: as above

Row | Sequence | SH2 binding enrichment
59 | RNESFYDTFST [EFCAB3_Y372] | 0.826
60 | SRASYYRKGGC [ALK_Y1283_Y1278S] | 0.644
61 | RKKEEYKMAPY [F8_Y1990_L1994P] | 1.32
62 | RLPINYTTRRI [LAMA2_Y2894_G2889R] | 0.76
63 | TEGNGYISFNE [LCP1_Y28_D24E] | 0.722
64 | WLFFRYLPIGC [ATP2A2_Y836_A838P] | 1.26
65 | LKGQVYILGRE [ASS1_Y359] | 0.836
66 | YGMSSYITRED [FNDC3B_Y180_T179S] | 0.764
67 | DSFATYFRRVL [H2BW1_Y84] | 0.797
68 | VNCHQYDGLVE [ATP2A2_Y407] | 1.18
69 | GREEFYSTHPH [LRRK2_Y1402] | 0.845
70 | KLPYLYDDPFS [GPX2_Y127_P126L] | 0.765
71 | GVRTIYTIDGS [DCLK2_Y124] | 0.968
72 | NTEGGYCCICA [CRELD1_Y328_R329C] | 0.704
73 | VIKDKYPKVRF [APTX_Y209_A212V_YF] | 1.4
74 | PQEVTYAQLDH [KIR3DL2_Y398] | 0.873

Results, then the sequence that gave them:

Row | SH2 binding enrichment | Sequence
75 | 0.588 | IINENYDFLKV [NUP98_Y1664_G1669V_YF]
76 | 1.47 | ISHVAYLVLGK [TRRAP_Y892_R893L]
77 | 0.877 | HLWRIYFDITD [MMP27_Y307_YF]
78 | 0.748 | KLIETCFSKNY [PLP1_Y50_Y50C]
79 | 0.984 | AVISVYDLVVV [PSEN1_Y256_A260V]
80 | 1.03 | PSELFYSKIGP [SMG1_Y2254_YF]
81 | 0.795 | ASELGYQFQAI [UROD_Y133_V134Q]
82 | 0.743 | FGSSSYGGAGG [RPA2_Y14_YF]
83 | 1.12 | NHYKICNLCAE [PTEN_Y68_Y68C]
84 | 0.721 | KSAAIYNPVIF [RHO_Y301_YF]
85 | 0.707 | DFPGIYSGFDD [POLR1C_Y33_N32I_YF]
86 | 0.854 | LTFHMYADPNF [SOS1_Y618_YF]
87 | 0.782 | ILGRYYETSSI [PAX2_Y73_G76S]

target: Jak2 (UniProt O60674); assay: phosphorylation enrichment, bacterial display (enrichment ratio); higher = better substrate or ligand; peptides without Tyr show the background
Sequence (O60674 whole entry, looked up): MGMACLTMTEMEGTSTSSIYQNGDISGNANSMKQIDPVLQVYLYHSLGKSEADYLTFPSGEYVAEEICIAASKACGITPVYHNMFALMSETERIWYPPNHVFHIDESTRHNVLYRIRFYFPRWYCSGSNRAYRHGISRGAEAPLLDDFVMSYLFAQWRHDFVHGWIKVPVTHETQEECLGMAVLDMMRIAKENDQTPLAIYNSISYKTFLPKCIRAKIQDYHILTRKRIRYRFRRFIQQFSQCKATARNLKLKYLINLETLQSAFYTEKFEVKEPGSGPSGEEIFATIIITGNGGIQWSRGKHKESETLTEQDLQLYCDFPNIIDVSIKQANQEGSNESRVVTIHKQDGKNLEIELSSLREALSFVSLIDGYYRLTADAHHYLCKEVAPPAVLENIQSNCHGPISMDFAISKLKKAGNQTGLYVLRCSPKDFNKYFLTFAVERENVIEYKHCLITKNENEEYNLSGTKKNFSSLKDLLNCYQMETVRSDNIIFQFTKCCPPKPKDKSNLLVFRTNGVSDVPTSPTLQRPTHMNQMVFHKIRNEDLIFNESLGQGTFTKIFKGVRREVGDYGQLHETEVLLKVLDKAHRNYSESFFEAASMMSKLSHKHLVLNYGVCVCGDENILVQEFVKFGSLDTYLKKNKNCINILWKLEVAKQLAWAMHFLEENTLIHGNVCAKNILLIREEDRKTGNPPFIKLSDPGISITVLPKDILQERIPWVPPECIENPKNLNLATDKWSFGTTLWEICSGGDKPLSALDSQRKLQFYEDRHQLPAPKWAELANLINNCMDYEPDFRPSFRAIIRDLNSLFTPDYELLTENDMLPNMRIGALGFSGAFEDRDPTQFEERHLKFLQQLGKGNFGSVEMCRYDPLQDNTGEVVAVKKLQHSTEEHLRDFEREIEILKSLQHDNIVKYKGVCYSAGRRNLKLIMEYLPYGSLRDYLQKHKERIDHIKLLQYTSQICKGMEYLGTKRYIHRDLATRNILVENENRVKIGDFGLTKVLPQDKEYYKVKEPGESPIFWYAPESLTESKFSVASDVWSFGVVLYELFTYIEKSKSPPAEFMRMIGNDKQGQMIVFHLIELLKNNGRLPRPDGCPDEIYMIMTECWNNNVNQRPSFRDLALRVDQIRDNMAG

Row | Sequence | phosphorylation enrichment
88 | IINENYDFLKV [NUP98_Y1664_G1669V_YF] | 0.97
89 | RNESFYDTFST [EFCAB3_Y372] | 0.891
90 | SRASYYRKGGC [ALK_Y1283_Y1278S] | 0.641
91 | ISHVAYLVLGK [TRRAP_Y892_R893L] | 0.996
92 | HLWRIYFDITD [MMP27_Y307_YF] | 1.52
93 | KLIETCFSKNY [PLP1_Y50_Y50C] | 1.13
94 | AVISVYDLVVV [PSEN1_Y256_A260V] | 1.29
95 | PSELFYSKIGP [SMG1_Y2254_YF] | 2.1
96 | ASELGYQFQAI [UROD_Y133_V134Q] | 0.679
97 | RKKEEYKMAPY [F8_Y1990_L1994P] | 1.1
98 | RLPINYTTRRI [LAMA2_Y2894_G2889R] | 0.547
99 | FGSSSYGGAGG [RPA2_Y14_YF] | 0.544
100 | TEGNGYISFNE [LCP1_Y28_D24E] | 0.823
101 | WLFFRYLPIGC [ATP2A2_Y836_A838P] | 1.14
102 | LKGQVYILGRE [ASS1_Y359] | 1.17
103 | YGMSSYITRED [FNDC3B_Y180_T179S] | 0.697
104 | DSFATYFRRVL [H2BW1_Y84] | 1
105 | NHYKICNLCAE [PTEN_Y68_Y68C] | 0.613
106 | VNCHQYDGLVE [ATP2A2_Y407] | 0.848
107 | GREEFYSTHPH [LRRK2_Y1402] | 0.483
108 | KLPYLYDDPFS [GPX2_Y127_P126L] | 0.997
109 | GVRTIYTIDGS [DCLK2_Y124] | 0.69
110 | KSAAIYNPVIF [RHO_Y301_YF] | 0.634
111 | NTEGGYCCICA [CRELD1_Y328_R329C] | 0.878
112 | VIKDKYPKVRF [APTX_Y209_A212V_YF] | 0.734
113 | DFPGIYSGFDD [POLR1C_Y33_N32I_YF] | 1.1
114 | LTFHMYADPNF [SOS1_Y618_YF] | 1.61
115 | ILGRYYETSSI [PAX2_Y73_G76S] | 0.632
116 | PQEVTYAQLDH [KIR3DL2_Y398] | 2.87
